We go through ten proteins from FireProtDB.

One may read the Tm as the temperature at which the thermal transition is half complete.

Values joined by “and” are separate entries in the source; they are usually repeats but may differ in a detail not shown here. Equal values may be shown once.

For this series the following is noted: whole UniProt chain shown.
The mark [1] stands for this setting: Homo sapiens, pH 7.5, 23 °C, GdnHCl, Fluorescence, Tris-HCl 50 mM, reversible: yes.
Setting [2] is: Hydrogenobacter thermophilus (strain DSM 6534 / IAM 12695 / TK-6), pH 7, Thermal, CD, KH2PO4-NaOH 10 mM, reversible: yes.
Setting [3] is: Homo sapiens, pH 7.4, 25 °C, Urea, CD, transition: 2, reversible: yes.
Setting [4] is: Homo sapiens, pH 7.4, 25 °C, Urea, absorbance, transition: 2, reversible: yes.
Where [5] appears, read: Homo sapiens, pH 7.4, 25 °C, Urea, fluorescence, transition: 2, reversible: yes.

B1: Subtilisin Savinase wild type, P29600 (protein)
chain: AQSVPWGISRVQAPAAHNRGLTGSGVKVAVLDTGISTHPDLNIRGGASFVPGEPSTQDGNGHGTHVAGTIAALNNSIGVLGVAPSAELYAVKVLGASGSGSVSSIAQGLEWAGNNGMHVANLSLGSPSPSATLEQAVNSATSRGVLVVAASGNSGAGSISYPARYANAMAVGATDQNNNRASFSQYGAGLDIVAPGVNVQSTYPGSTYASLNGTSMATPHVAGAAALVKQKNPSWSNVQIRNHLKNTATSLGSTNLYGSGLVNAEAATR
With B1, the Tm is, setting by setting: (Lederbergia lenta, pH 8.8, Thermal, CD, Tris buffer 100 mM, reversible: No) 77.2 °C and 79.2 °C; (Lederbergia lenta, pH 9, Thermal, DSC, boric acid 100 mM, CaCl2 2 mM) 72.7 °C and 75.5 °C.

B2: Cytochrome b5 type B wild type, O43169 (protein)
chain: MSGSMATAEASGSDGKGQEVETSVTYYRLEEVAKRNSLKELWLVIHGRVYDVTRFLNEHPGGEEVLLEQAGVDASESFEDVGHSSDAREMLKQYYIGDIHPSDLKPESGSKDPSKNDTCKSCWAYWILPIIGAVLLGFLYRYYTSESKSS
As to B2, the “denaturant midpoint (higher = more stable)” value (“denaturant midpoint” for short) (Homo sapiens, pH 7, 25 °C, GdmSCN, UV/visible spectrophotometer, MOPS 30mM) was determined as 1.86 M. For the same protein, the Tm (Homo sapiens, pH 7, Thermal, UV/visible spectrophotometer, Potassium phosphate 50mM) came out at 85.7 °C.

B3: Endo-1,4-beta-xylanase 2 wild type, P36217 (protein)
chain: MVSFTSLLAGVAAISGVLAAPAAEVESVAVEKRQTIQPGTGYNNGYFYSYWNDGHGGVTYTNGPGGQFSVNWSNSGNFVGGKGWQPGTKNKVINFSGSYNPNGNSYLSVYGWSRNPLIEYYIVENFGTYNPSTGATKLGEVTSDGSVYDIYRTQRVNQPSIIGTATFYQYWSVRRNHRSSGSVNTANHFNAWAQQGLTLGTMDYQIVAVEGYFSSGSASITVS
As to B3, where the note is “Hypocrea jecorina (strain ATCC 56765 / BCRC 32924 / NRRL 11460 / Rut C-30), pH 5, Thermal, DSC, citrate - phosphate buffer 50 mM”, the Tm was 61.4 °C.

B4: Persulfide dioxygenase ETHE1, mitochondrial wild type, O95571 (protein)
chain: MAEAVLRVARRQLSQRGGSGAPILLRQMFEPVSCTFTYLLGDRESREAVLIDPVLETAPRDAQLIKELGLRLLYAVNTHCHADHITGSGLLRSLLPGCQSVISRLSGAQADLHIEDGDSIRFGRFALETRASPGHTPGCVTFVLNDHSMAFTGDALLIRGCGRTDFQQGCAKTLYHSVHEKIFTLPGDCLIYPAHDYHGFTVSTVEEERTLNPRLTLSCEEFVKIMGNLNLPKPQQIDFAVPANMRCGVQTPTA
For the protein B4, the Tm (Homo sapiens, pH 7.5, Thermal, CD, Tris-HCl 50mM, NaCl 150mM, transition: 2) was found to be 62 °C.

B5: wild type, Q96HL2 (protein)
chain: MTKLRAQQCRFWTSFFPKVLEMTGNIDEAEWEWKAGFHRWNNYMMDWKNQFNDYTSKKESCVGL
Regarding B5, the Tm (Homo sapiens, pH 8, Thermal, DSC, sodium phosphate 50 mM) is 62.8 °C.

B6: Tissue factor wild type, P13726 (protein)
chain: METPAWPRVPRPETAVARTLLLGWVFAQVAGASGTTNTVAAYNLTWKSTNFKTILEWEPKPVNQVYTVQISTKSGDWKSKCFYTTDTECDLTDEIVKDVKQTYLARVFSYPAGNVESTGSAGEPLYENSPEFTPYLETNLGQPTIQSFEQVGTKVNVTVEDERTLVRRNNTFLSLRDVFGKDLIYTLYYWKSSSSGKKTAKTNTNEFLIDVDKGENYCFSVQAVIPSRTVNRKSTDSPVECMGQEKGEFREIFYIIGAVVFVVIILVIILAISLHKCRKAGVGQSWKENSPLNVS
With B6, under setting [1], the “denaturant midpoint” value was 1.35 M and the unfolding free energy is 6.3 kcal/mol.

B7: SNARE-associated protein Snapin wild type, O95295 (protein)
chain: MAGAGSAAVSGAGTPVAGPTGRDLFAEGLLEFLRPAVQQLDSHVHAVRESQVELREQIDNLATELCRINEDQKVALDLDPYVKKLLNARRRVVLVNNILQNAQERLRRLNHSVAKETARRRAMLDSGIYPPGSPGK
Turning to B7, the Tm (Homo sapiens, pH 7.4, Thermal, CD, Tris 50 mM) came to 57.9 °C.

B8: Cytochrome c-552 wild type, P15452 (protein)
chain: MKKFLLVAVVGLAGITFANEQLAKQKGCMACHDLKAKKVGPAYADVAKKYAGRKDAVDYLAGKIKKGGSGVWGSVPMPPQNVTDAEAKQLAQWILSIK
With B8, under setting [2], the Tm is 90 °C and the “unfolding enthalpy (van 't Hoff)” value came out at 83.5 kcal/mol.

B9: Thymidylate synthase wild type, P00469 (protein)
chain: MLEQPYLDLAKKVLDEGHFKPDRTHTGTYSIFGHQMRFDLSKGFPLLTTKKVPFGLIKSELLWFLHGDTNIRFLLQHRNHIWDEWAFEKWVKSDEYHGPDMTDFGHRSQKDPEFAAVYHEEMAKFDDRVLHDDAFAAKYGDLGLVYGSQWRAWHTSKGDTIDQLGDVIEQIKTHPYSRRLIVSAWNPEDVPTMALPPCHTLYQFYVNDGKLSLQLYQRSADIFLGVPFNIASYALLTHLVAHECGLEVGEFIHTFGDAHLYVNHLDQIKEQLSRTPRPAPTLQLNPDKHDIFDFDMKDIKLLNYDPYPAIKAPVAV
Turning to B9, under “Lacticaseibacillus casei, pH 7, 4 °C, Urea, CD, KHPO4 20 mM, KCl 0.5 M, reversible: yes”, the unfolding free energy was determined as 19.1 kcal/mol.

B10: Peroxiredoxin-6 wild type, P30041 (protein)
chain: MPGGLLLGDVAPNFEANTTVGRIRFHDFLGDSWGILFSHPRDFTPVCTTELGRAAKLAPEFAKRNVKLIALSIDSVEDHLAWSKDINAYNCEEPTEKLPFPIIDDRNRELAILLGMLDPAEKDEKGMPVTARVVFVFGPDKKLKLSILYPATTGRNFDEILRVVISLQLTAEKRVATPVDWKDGDSVMVLPTIPEEEAKKLFPKGVFTKELPSGKKYLRYTPQP
With B10, the denaturant m value by setting is: under setting [3], 1.02 kcal/mol/M; under setting [4], 1.03 kcal/mol/M; under setting [5], 1.04 kcal/mol/M. Also, the “denaturant midpoint” value reads like this: under setting [3], 3.02 M; under setting [4], 2.71 M; under setting [5], 2.74 M. Besides, the unfolding free energy runs as follows: under setting [3], 3.17 kcal/mol; under setting [4], 2.82 kcal/mol; under setting [5], 2.88 kcal/mol.
